Here are results for one molecule from US20100297734, “Fusion Tag Comprising an Affinity Tag and an EF-Hand Motif Containing Polypeptide and Methods of Use Thereof” (University Health Network, published 2010).

For this series, the target named is p53(1-360) (Homo sapiens, UniProt P04637 P04637:1-360). The series can be described thus: EMSA; 0.10 nM DNA, 12 uM p53(1-360), PBS, 25 C, 2 ug poly(dI-dC) competitor, 1 h; 6% gel in TBM. The settings on record: tags: HiCaM tag (His6-calmodulin) removed by thrombin; expressed in E. coli BL21(DE3)Star; chain copies: 4 inferred; label: 32P. As to the method: Functional Assays of purified, untagged constructs—The excitation and emission spectra (excited at 488 nm) of eGFP were recorded from 300 to 700 nm at 25° C. in a Fluoromax-3 Spectrofluorometer. For p53(1-360), a ³²P-labelled restriction fragment harbouring an icosamer recognition sequence (5′-[…]-3′ (SEQ ID NO:6)) (0.10 nM) was incubated alone, with 50 ng/μL BSA or 12 μM p53(1-360) in PBS at 25° C. with 2 μg poly(dI-dC)˜poly(dl-dC) for 1 hour before separation in a 6% polyacrylamide gel in TBM buffer at 25 V/cm. The gel was then exposed to a phosphor screen for 1 hour and imaged in a Typhoon® Phosphorimager (GE Healthcare). Human p53(1-360) (7 μM) was also crosslinked with 0.125% glutaraldehyde at 25° C. for 12 min. and separated on SDS-PAGE, followed by Coomassie Blue staining (Poon et al. 2007).
Chain of p53(1-360) (P04637 1-360, one chain of several): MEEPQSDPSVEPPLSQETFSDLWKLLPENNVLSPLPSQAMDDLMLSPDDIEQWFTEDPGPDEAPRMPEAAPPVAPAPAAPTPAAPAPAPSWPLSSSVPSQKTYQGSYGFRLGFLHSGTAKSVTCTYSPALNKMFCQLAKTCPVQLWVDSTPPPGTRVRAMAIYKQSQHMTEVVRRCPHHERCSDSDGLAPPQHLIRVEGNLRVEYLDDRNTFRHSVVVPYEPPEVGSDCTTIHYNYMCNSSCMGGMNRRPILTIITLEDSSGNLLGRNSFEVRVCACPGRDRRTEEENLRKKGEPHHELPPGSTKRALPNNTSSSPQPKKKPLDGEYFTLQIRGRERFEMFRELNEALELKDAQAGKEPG
Background: In EMSA bound probe runs differently from free probe, usually more slowly.

B1: p53 icosamer recognition sequence (dsDNA)
DNA 1: AGGCATGTCTAGGCATGTCT
DNA 2: AGACATGCCTAGACATGCCT
On to B1, for which the binding result is given as “binds”.
